Data published in PMC1751550.

Target: full length Brn-3b GST fusion protein (UniProt Q63934)
Assay: pull-down

Sequence of UniProt Q63934 (Q63934 whole entry, the tested form may be a part): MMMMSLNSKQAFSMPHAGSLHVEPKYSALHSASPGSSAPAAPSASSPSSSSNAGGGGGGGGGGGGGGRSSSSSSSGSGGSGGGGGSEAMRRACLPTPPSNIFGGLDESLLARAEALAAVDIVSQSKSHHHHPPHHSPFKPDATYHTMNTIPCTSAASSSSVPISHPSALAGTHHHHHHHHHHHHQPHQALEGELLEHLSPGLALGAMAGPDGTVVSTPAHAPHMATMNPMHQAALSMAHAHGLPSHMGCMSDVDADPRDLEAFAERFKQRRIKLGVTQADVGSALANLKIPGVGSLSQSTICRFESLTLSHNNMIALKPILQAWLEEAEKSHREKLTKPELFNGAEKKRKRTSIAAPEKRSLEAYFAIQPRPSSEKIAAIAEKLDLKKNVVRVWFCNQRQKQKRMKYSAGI

With “in vitro translated estrogen receptor (from UniProt P03372 1-595)” the percent of input retained was 15.2 % of input.
